Reference: patent EP4520771A2 (Genmab A/S, dated 2025)
Read-outs that look alike come from different tables or passages of the source.

B1: HER2 antibody 129 (antibody, V domains shown)
VH: QVQLVESGGGVVQPGRSLRLSCAASGFTFSTFAIHWVRQAPGKGLEWVAVISYDGGHKFYADSVKGRFTISRDNSKNTLYLQMNSLRAEDTAMYYCARGLGVWGAFDYWGQGTLVTVSS
VL: EIVLTQSPATLSLSPGERATLSCRASQSVSSYLAWYQQKPGQAPRLLIYDASNRATGIPARFSGSGSGTDFTLTISSLEPEDFAVYYCQQRSNWWTFGQGTKVEIK
B2: HER2 antibody 111 (antibody, V domains shown)
VH: QVQLVQSGAEVKKPGSSVKVSCKASGGTFSSYGISWVRQAPGPGLEWMGRIIPILGIANYAQKFQGRVTITADKSTNTAYMELSSLRSEDTAVYYCARDQEYSSNWYYWGQGTLVTVSS
VL: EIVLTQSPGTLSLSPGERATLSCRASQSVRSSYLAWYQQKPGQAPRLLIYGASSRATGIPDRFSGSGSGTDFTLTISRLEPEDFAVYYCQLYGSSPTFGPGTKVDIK
B3: HER2 antibody 005 (antibody, human IgG1, V domains shown)
VH: EVQLVQSGAEVKKPGESLKISCKASGYSFHFYWIGWVRQMPGKGLEWMGSIYPGDSDTRYRPSFQGQVTISADKSISTAYLQWTSLKASDTAIYYCARQRGDYYYFYGMDVWGQGTTVTVSS
VL: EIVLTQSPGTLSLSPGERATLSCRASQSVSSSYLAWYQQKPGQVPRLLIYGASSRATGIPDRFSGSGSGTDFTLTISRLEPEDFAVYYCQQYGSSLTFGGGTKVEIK
notes: human IgG1,κ; also called HuMab 005; PC1014-005
B4: HER2 antibody 106 (antibody, V domains shown)
VH: EVQLVQSGAEVKKPGESLKISCKGSGYSFTRYWIGWVRQMPGKGLEWMGIIYPGDSDTRYSPSFQGQVTISADKSISTAYLQWSSLKASDTAMYYCARLTGDRGFDYYSGMDVWGQGTTVTVSS
VL: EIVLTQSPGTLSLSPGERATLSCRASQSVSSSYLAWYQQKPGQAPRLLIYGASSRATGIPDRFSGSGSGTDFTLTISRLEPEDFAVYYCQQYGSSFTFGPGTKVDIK
B5: HER2 antibody 127 (antibody, V domains shown)
VH: EVQLVQSGAEVKKPGESLTISCKGSGYSFSIYWIGWVRQMPGKGLEWMGIIFPGDSDIRYSPSFQGQVTISADKSISTAYLQWSSLKASDTAMYYCARQPGDWSPRHWYFDLWGRGTLVTVSS
VL: VIWMTQSPSLLSASTGDRVTISCRMSQGISSYLAWYQQKPGKAPELLIYAASTLQSGVPSRFSGSGSGTDFTLTISYLQSEDFATYYCQQYYSFPLTFGGGTKVEIK
B6: HER2 antibody 169 (antibody, V domains shown)
VH: QVQLVQSGAEVKKPGASVKVSCKASGYTFTNYGISWVRQAPGQGLEWMGWLSAYSGNTIYAQKLQGRVTMTTDTSTTTAYMELRSLRSDDTAVYYCARDRIVVRPDYFDYWGQGTLVTVSS
VL: EIVLTQSPATLSLSPGERATLSCRASQSVSSYLAWYQQKPGQAPRLLIYDASNRATGIPARFSGSGSGTDFTLTISSLEPEDFAVYYCQQRSNWPRTFGQGTKVEIK
B7: HER2 antibody 059 (antibody, V domains shown)
VH: QVQLVQSGAEVKKPGASVRVPCKASGYTFTRYGISWVRQAPGQGLEWMGWISAYNGKTYYAQKLQGRVTMTTDTSTSTAYMELRSLRSDDTAVYYCARSPLLWFEELYFDYWGQGTLVTVSS
VL: EIVLTQSPGTLSLSPGERATLSCRASQSVSSTYLAWYQQKPGQAPRLLIYGASSRATGIPDRFSGSGSGTDFTLTISRLEPEDFAVYYCQQYGTSLFTFGPGTKVDIK
B8: HER2 antibody 084 (antibody, V domains shown)
VH: QVQLVQSGAEVKKPGSSVKVSCKASGGTFRTYAINWVRQAPGQGLEWMGRINTVLGIVNHAQKFQGRVTITADKSTNTAYMELNSLRSEDTAVYYCAREKGVDYYYGIEVWGQGTTVTVSS
VL: DIQMTQSPSSVSASVGDRVTITCRASQGISSWLAWYQHKPGKAPKLLIYVASTLQSGVPSRFSGSGSGTDFTLTISSLQPEDFATYYCQQANSFPLTFGGGTKVEIK
B9: HER2 antibody 050 (antibody, V domains shown)
VH: EVQLLESGGGLVQPGGSLRLSCAASGFTFSSYAMNWVRQAPGKGLEWVSAISGRGGTTYYADSVKGRFTISRDNSKNTLYLQMSSLRAEDTAVYYCAKARANWDYFDYWGQGTLVTVSS
VL: DIQMTQSPSSVSASVGDRVTITCRASQGISSWLAWYQHKPGKAPKLLIYAASILQSGVPSRFSGSGSGTDFTLTISSLQPEDFATYYCQQANSFPITFGQGTRLEIK
B10: HER2 antibody 060 (antibody, V domains shown)
VH: EVQLVQSGAEVKKPGESLKISCKGSGYRFTSYWIGWVRQMPGKGLEWMGSIYPGDSYTRNSPSFQGQVTISADKSIATAYLQWNSLKASDTAMYYCARHAGDFYYFDGLDVWGQGTTVTVSS
VL: not shown
B11: HER2 antibody 132 (antibody, V domains shown)
VH: QVQLVQSGAEVKKPGASVKVSCKASGYTFTSYGISWVRQAPGQGLEWMGWISAYNGNSNYVQKFQGRVTMTTDTTTSTAYMELRSLTSDDTAVYYCAREYSYDSGTYFYYGMDVWGQGTTVTVSS
VL: EIVLTQSPATLSLSPGERATLSCRASQSVSSYLAWYQQKPGQAPRLLIYDASNRATGIPARFSGSGSGTDFTLTISSLEPEDFAVYYCQQRSNWPMYTFGQGTKLEIK
B12: HER2 antibody 159 (antibody, V domains shown)
VH: EVQLVQSGAEVKKPGESLKISCKGSGYNFTSYWIGWVRQMPGKGLEWMGIIYPGDSDTRYSPSFQGQVTISADKSISTAYLQWSSLKASDTAMYYCARWGTYYDILTGYFNWFDPWGQGTLVTVSS
VL: DIQMTQSPSSLSASVGDRVTITCRASQGISSWLAWYQQKPEKAPKSLIYAASSLQSGVPSRFSGSGSGTDFTLTISSLQPEDFATYYCQQYYIYPWTFGQGTKVEIK
B13: HER2 antibody 153 (antibody, V domains shown)
VH: QVQLVESGGGVVQPGRSLRLSCAASGFTFSDYVIHWVRQAPGKGLEWVTVISYDGSNKYYADSVKGRFTISRDNSKNTLYLQMNSLSAEDTAMYYCARGGITGTTGVFDYWGQGTLVTVSS
VL: DIQMTQSPSSLSASVGDRVTITCRASQGISSWLAWYQQKPEKAPKSLIYDASSLQSGVPSRFSGSGYGTDFSLTISSLQPEDFAIYYCQQYKSYPITFGQGTRLEIK
B14: HER2 antibody 091 (antibody, V domains shown)
VH: QVQLQQWGAGLLKPSETLSLTCAVSGGSFSGYYWTWIRQPPGKGLEWIGEIYHSGDTNYNPSLKSRVTISVDTSKNQFSLKLYSVTAADTAVYYCARLYFGSGIYYLDYWGQGTLVTVSS
VL: DIQMTQSPSSLSASVGDRVTITCRASQGISSWLVWYQQKPEKAPKSLIYAASSLQSGVPSRFSGSGSGTDFTLTISSLQPEDFATYYCQQYNSFPPTFGQGTKVEIK
B15: HER2 antibody 025 (antibody, V domains shown)
VH: QVQLQQWGAGLLKPSETLSLTCAVYGGSFSDYYWNWIRQPPGKGLEWIGEIHHSGSTNYNPSLKSRVTISVDTSKNQFSLKLSSVTAADTAVYYCARGYYDSGVYYFDYWAQGTLVTVSS
VL: DIQMTQSPSSLSASVGDRVTITCRASQGISRWLAWYQQKPEKAPKSLIYAASSLRSGVPSRFSGSGSGTDFTLTISSLQPEDFATYYCQQYNSYPITFGQGTRLEIK
notes: also called HuMab-025; PC1014-025
B16: HER2 antibody 098 (antibody, V domains shown)
VH: EVQLLESGGGLVQPGGSLRLSCAASGFTFSNYGMSWVRQAPGKGLEWVSAISGSAYSTYYADSVKGRFTISRDNSKNTLWLQMNSLRAEDTAVYYCAKAHYHGSGSYYTLFDYWGQGTLVTVSS
VL: DIQMTQSPSSLSASVGDRVTITCRASQGISSWLAWYQQKPEKAPKSLIYAASSLQSGVPSRFSGSGSGTDFTLTISSLQPEDFATYYCQQYNSYPYTFGQGTKLEIK
notes: also called PC1014-098; TH1014-098

Experiments:
[1] = biological target: T1, human epidermal growth factor receptor 2 (HER2) (human, UniProt P04626 23-1255); assay: cell-based or functional assay
[2] = biological target: T1, human epidermal growth factor receptor …; assay: cell-based or functional assay; remark: listed apart in the source
[3] = biological target: T1, human epidermal growth factor receptor …; assay: cell-based or functional assay; remark: listed apart in the source
[4] = biological target: T1, human epidermal growth factor receptor …; assay: cell-based or functional assay; remark: listed apart in the source
[5] = biological target: T1, human epidermal growth factor receptor …; assay: cell-based or functional assay; remark: listed apart in the source
[6] = biological target: T1, human epidermal growth factor receptor …; assay: flow cytometry on A431 cells
[7] = biological target: T1, human epidermal growth factor receptor …; assay: flow cytometry on AU565 cells

Row | Binder | % cells killed (maximal), A431 cells, anti-kappa-ETA'-conjugated antibody [1] [%] | EC50 of A431 cell kill, anti-kappa-ETA'-conjugated antibody [1] [µg/mL] | % cells killed (maximal), AU565 cells, anti-kappa-ETA'-conjugated antibody [2] [%] | EC50 of AU565 cell kill, anti-kappa-ETA'-conjugated antibody [2] [µg/mL] | % cells killed (maximal), AU565 cells, anti-kappa-ETA'-conjugated antibody [3] [%] | EC50 of AU565 cell kill, anti-kappa-ETA'-conjugated antibody [3] [µg/mL] | further results
1 | B1 | 75.9 | ~0.0106 | 60.8 | 0.0309 |  |  | 
2 | B2 |  |  |  |  | 72 | 0.0242 | EC50 of A431 cell kill, anti-kappa-ETA'-conjugated antibody [4]: ~0.01 µg/mL
3 | B3 |  |  |  |  | 69.7 | 0.0151 | EC50 of A431 cell kill, anti-kappa-ETA'-conjugated antibody [5]: ~0.0101 µg/mL; binding result [6]: binds
4 | B4 |  |  |  |  | 59.1 | 0.108 | 
5 | B5 |  |  | 69 | 0.0345 |  |  | 
6 | B6 | 34 |  | 49.9 | 0.0356 |  |  | 
7 | B7 |  |  |  |  | 67 | 0.0677 | 
8 | B8 | 50.5 |  | 58.1 | 0.027 |  |  | 
9 | B9 |  |  | 52.4 | 0.0127 |  |  | 
10 | B10 |  |  |  |  | 64.3 | 0.0794 | EC50 of A431 cell kill, anti-kappa-ETA'-conjugated antibody [5]: ~0.01 µg/mL
11 | B11 |  |  | 61.6 | 0.0394 |  |  | 
12 | B12 |  |  | 70.3 | 0.0349 |  |  | 
13 | B13 | 82.4 | ~0.0101 | 60.3 | 0.0323 |  |  | 
14 | B14 | 83.3 | ~0.00986 | 50.6 | 0.0465 |  |  | 
15 | B15 | 86.7 | ~0.00977 | 60 | 0.0167 |  |  | binding result [6]: binds
16 | B16 | 87.2 | 0.00165 | 58.7 | 0.0121 |  |  | EC50 [7]: 0.336 µg/mL; EC50 [6]: 0.068 µg/mL
